# From patent US20230257448A1 (TWIST BIOSCIENCE, published 2023)
# Assays:
# Details in all cases: remark: other sources report otherwise
# [1] = target: S1 monomer of SARS-CoV-2 Delta (SARS-CoV-2), P0DTC2
# [2] = target: prefusion-stabilized S trimer of the Delta variant (SARS-CoV-2), P0DTC2
# [3] = target: prefusion-stabilized S trimer of the Omicron (B.1.529) variant (SARS-CoV-2), P0DTC2
binder,measurement,setting,value
3-31 (Fc fusion) EVQLVESGGGLVQPGGSLRLSCAASGSTFSINAMGWFRQAPGKEREFVAGITSSGGYTNYADSVKGRFTISADNSKNTAYLQMNSLKPEDTAVYYCAADGVPEYSDYASGPVWGQGTLVTVSS,Kd,[1],1.1 nM
same,Kd,[2],< 0.016 nM
same,Kd,[3],2.1 nM
